Data from IntAct's records for PubMed 22791719.

B1: Phospholipid-transporting ATPase DRS2 (Saccharomyces cerevisiae), P39524 (parent)
chain: MNDDRETPPKRKPGEDDTLFDIDFLDDTTSHSGSRSKVTNSHANANYIPPSHVLPEETIDLDADDDNIENDVHENLFMSNNHDDQTSWNANRFDSDAYQPQSLRAVKPPGLFARFGNGLKNAFTFKRKKGPESFEMNHYNAVTNNELDDNYLDSRNKFNIKILFNRYILRKNVGDAEGNGEPRVIHINDSLANSSFGYSDNHISTTKYNFATFLPKFLFQEFSKYANLFFLCTSAIQQVPHVSPTNRYTTIGTLLVVLIVSAMKECIEDIKRANSDKELNNSTAEIFSEAHDDFVEKRWIDIRVGDIIRVKSEEPIPADTIILSSSEPEGLCYIETANLDGETNLKIKQSRVETAKFIDVKTLKNMNGKVVSEQPNSSLYTYEGTMTLNDRQIPLSPDQMILRGATLRNTAWIFGLVIFTGHETKLLRNATATPIKRTAVEKIINRQIIALFTVLIVLILISSIGNVIMSTADAKHLSYLYLEGTNKAGLFFKDFLTFWILFSNLVPISLFVTVELIKYYQAFMIGSDLDLYYEKTDTPTVVRTSSLVEELGQIEYIFSDKTGTLTRNIMEFKSCSIAGHCYIDKIPEDKTATVEDGIEVGYRKFDDLKKKLNDPSDEDSPIINDFLTLLATCHTVIPEFQSDGSIKYQAASPDEGALVQGGADLGYKFIIRKPNSVTVLLEETGEEKEYQLLNICEFNSTRKRMSAIFRFPDGSIKLFCKGADTVILERLDDEANQYVEATMRHLEDYASEGLRTLCLAMRDISEGEYEEWNSIYNEAATTLDNRAEKLDEAANLIEKNLILIGATAIEDKLQDGVPETIHTLQEAGIKIWVLTGDRQETAINIGMSCRLLSEDMNLLIINEETRDDTERNLLEKINALNEHQLSTHDMNTLALVIDGKSLGFALEPELEDYLLTVAKLCKAVICCRVSPLQKALVVKMVKRKSSSLLLAIGDGANDVSMIQAAHVGVGISGMEGMQAARSADIAVGQFKFLKKLLLVHGSWSYQRISVAILYSFYKNTALYMTQFWYVFANAFSGQSIMESWTMSFYNLFFTVWPPFVIGVFDQFVSSRLLERYPQLYKLGQKGQFFSVYIFWGWIINGFFHSAIVFIGTILIYRYGFALNMHGELADHWSWGVTVYTTSVIIVLGKAALVTNQWTKFTLIAIPGSLLFWLIFFPIYASIFPHANISREYYGVVKHTYGSGVFWLTLIVLPIFALVRDFLWKYYKRMYEPETYHVIQEMQKYNISDSRPHVQQFQNAIRKVRQVQRMKKQRGFAFSQAEEGGQEKIVRMYDTTQKRGKYGELQDASANPFNDNNGLGSNDFESAEPFIENPFADGNQNSNRFSSSRDDISFDI
partner: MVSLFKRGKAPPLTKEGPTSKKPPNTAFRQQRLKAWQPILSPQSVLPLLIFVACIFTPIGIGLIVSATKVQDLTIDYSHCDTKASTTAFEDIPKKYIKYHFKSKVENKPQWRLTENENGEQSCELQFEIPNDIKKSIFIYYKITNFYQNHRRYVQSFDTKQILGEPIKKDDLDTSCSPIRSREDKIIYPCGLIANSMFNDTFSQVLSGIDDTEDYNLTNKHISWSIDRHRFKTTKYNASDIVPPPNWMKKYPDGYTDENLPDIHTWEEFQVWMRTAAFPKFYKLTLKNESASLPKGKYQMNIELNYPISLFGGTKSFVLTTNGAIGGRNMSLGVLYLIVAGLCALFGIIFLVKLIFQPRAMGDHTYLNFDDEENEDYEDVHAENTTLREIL
B2: Phospholipid-transporting ATPase accessory subunit CDC50 (Saccharomyces cerevisiae), P25656 (parent)
chain: B1 partner
partner: B1 chain
B3: Phospholipid-transporting ATPase accessory subunit LEM3 (Saccharomyces cerevisiae), P42838 (parent)
chain: MVNFDLGQVGEVFRRKDKGAIVSGDNPEEEEDVDASEFEEDEVKPVRTKNRRPKEDAFTQQRLAAINPVLTPRTVLPLYLLIAVVFVIVGGCILAQNSKVDEVTIYYQDCMTNATSSWSDIPSEHWQFVFHKYKTYNTAPQWRFVDDESDDFTKQRGTCQIRFTTPSDMKNNVYLNYVLEKFAANHRRYVLSFSEDQIRGEDASYETVHDATGINCKPLSKNADGKIYYPCGLIANSMFNDTFPLQLTNVGDTSNNYSLTNKGINWESDKKRYKKTKYNYTQIAPPPYWEKMYPDGYNETNIPDIQDWEEFQNWMRPGAFDKITKLIRINKNDTLPAGEYQLDIGLHWPVLEFNGKKGIYLTHGSHLGGRNPFLGIVYLIGGCICAAMALILLTFWLFGGRKIADASSLSWNMK
B4: Phospholipid-transporting ATPase accessory subunit CRF1 (Saccharomyces cerevisiae), P53740 (parent)
chain: MGLILRWKEKKQLSSKQNAQKSRKPANTSFRQQRLKAWQPILSPQSVLPLLILMACVFAPIGIGLVVSTISVQRLVVNYTECDALAPAKHFETIPSEYVDYHFSKKVAVQPQWMVLTDPELGNQTCRIQFEVPNHIKKSTYVYYRLTNFNQNYREYVQSLDLDQLKGKALIGNDLDPNCDPLRTVENKTIFPCGLIANSMFNDTFGTTLTGVNDTADYLLTTKGIAWDTDSHRYGKTEYNASDIVPPPNWAKLFPNGYTDDNIPDLQNWEQFKIWMRTAALPNFYKLAMKNETNGLGKGIYIADIELNYPVRSFYGTKSFVLTTNSIIGAGNEALGIVYLIVAGIATLFAILFLIKVIFKPRPMHDHSYLNFENSDTPFDESSVVSIPLREIL

Variants of: B1
Settings: with cdc50_yeast CDC50, P25656

Variant | effect of a mutation on the interaction
E342Q | with no effect
D560N | disrupting interaction strength
G341L | disrupting interaction strength

Variants of: B2
Settings: with atc3_yeast DRS2, P39524

Variant | effect of a mutation on the interaction
C176A | decreasing interaction strength
C190A | decreasing interaction strength
C123A | disrupting interaction strength
C80A | disrupting interaction strength

Variants of: B3
Settings: with atc5_yeast DNF1, P32660
Sequence of atc5_yeast DNF1, P32660 (P32660 whole entry): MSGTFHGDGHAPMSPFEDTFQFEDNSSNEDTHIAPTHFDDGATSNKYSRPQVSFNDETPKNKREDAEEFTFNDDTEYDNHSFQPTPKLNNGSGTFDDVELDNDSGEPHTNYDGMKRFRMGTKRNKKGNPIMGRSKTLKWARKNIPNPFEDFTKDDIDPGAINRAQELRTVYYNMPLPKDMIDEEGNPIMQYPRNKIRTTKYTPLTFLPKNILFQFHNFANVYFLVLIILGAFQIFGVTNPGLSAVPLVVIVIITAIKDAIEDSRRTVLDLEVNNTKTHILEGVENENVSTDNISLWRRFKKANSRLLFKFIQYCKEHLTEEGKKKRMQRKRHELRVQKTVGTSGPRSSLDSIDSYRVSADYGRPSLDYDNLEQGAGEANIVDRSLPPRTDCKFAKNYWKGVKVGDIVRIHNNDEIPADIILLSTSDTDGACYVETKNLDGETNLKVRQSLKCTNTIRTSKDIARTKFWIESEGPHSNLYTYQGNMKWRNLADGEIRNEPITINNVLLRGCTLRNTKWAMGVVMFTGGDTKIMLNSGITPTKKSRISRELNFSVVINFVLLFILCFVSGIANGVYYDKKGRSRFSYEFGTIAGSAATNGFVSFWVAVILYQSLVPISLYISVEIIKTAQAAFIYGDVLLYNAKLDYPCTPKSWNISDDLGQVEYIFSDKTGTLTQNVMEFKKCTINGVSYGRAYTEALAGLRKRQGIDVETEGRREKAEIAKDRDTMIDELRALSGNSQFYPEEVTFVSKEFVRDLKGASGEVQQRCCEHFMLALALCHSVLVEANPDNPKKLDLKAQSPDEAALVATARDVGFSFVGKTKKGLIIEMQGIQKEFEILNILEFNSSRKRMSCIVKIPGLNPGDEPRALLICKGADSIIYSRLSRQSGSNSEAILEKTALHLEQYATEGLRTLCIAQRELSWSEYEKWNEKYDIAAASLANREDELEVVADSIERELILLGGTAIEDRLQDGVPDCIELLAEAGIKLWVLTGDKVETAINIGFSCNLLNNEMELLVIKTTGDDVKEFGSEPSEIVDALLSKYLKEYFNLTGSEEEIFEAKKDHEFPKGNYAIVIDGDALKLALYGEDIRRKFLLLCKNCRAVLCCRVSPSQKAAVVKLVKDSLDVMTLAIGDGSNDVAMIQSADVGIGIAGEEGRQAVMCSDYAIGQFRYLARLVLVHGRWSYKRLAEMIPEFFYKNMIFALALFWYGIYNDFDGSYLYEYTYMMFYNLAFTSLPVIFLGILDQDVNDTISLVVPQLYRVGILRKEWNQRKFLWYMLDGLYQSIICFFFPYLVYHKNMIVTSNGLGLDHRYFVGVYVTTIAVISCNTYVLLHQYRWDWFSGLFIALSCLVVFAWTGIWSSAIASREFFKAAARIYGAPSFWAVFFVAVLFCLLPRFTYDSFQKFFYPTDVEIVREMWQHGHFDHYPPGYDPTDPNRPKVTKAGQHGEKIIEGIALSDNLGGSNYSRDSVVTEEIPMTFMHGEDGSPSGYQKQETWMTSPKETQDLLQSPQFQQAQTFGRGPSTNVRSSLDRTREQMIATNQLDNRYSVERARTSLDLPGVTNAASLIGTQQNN

Variant | effect of a mutation on the interaction
C231A | decreasing interaction strength
S237L | disrupting interaction strength
C110A | disrupting interaction strength
C216A | disrupting interaction strength
C159A | disrupting interaction strength
G375E | disrupting interaction strength
A83T | disrupting interaction strength
A404V | disrupting interaction strength

Variants of: B3
Settings: with atc5_yeast DNF1, P32660
Remark: another data set of the same source

Variant | effect of a mutation on the interaction
A65V | decreasing interaction strength

Variants of: B4
Settings: with atc8_yeast DNF3, Q12674
Sequence of atc8_yeast DNF3, Q12674 (Q12674 whole entry): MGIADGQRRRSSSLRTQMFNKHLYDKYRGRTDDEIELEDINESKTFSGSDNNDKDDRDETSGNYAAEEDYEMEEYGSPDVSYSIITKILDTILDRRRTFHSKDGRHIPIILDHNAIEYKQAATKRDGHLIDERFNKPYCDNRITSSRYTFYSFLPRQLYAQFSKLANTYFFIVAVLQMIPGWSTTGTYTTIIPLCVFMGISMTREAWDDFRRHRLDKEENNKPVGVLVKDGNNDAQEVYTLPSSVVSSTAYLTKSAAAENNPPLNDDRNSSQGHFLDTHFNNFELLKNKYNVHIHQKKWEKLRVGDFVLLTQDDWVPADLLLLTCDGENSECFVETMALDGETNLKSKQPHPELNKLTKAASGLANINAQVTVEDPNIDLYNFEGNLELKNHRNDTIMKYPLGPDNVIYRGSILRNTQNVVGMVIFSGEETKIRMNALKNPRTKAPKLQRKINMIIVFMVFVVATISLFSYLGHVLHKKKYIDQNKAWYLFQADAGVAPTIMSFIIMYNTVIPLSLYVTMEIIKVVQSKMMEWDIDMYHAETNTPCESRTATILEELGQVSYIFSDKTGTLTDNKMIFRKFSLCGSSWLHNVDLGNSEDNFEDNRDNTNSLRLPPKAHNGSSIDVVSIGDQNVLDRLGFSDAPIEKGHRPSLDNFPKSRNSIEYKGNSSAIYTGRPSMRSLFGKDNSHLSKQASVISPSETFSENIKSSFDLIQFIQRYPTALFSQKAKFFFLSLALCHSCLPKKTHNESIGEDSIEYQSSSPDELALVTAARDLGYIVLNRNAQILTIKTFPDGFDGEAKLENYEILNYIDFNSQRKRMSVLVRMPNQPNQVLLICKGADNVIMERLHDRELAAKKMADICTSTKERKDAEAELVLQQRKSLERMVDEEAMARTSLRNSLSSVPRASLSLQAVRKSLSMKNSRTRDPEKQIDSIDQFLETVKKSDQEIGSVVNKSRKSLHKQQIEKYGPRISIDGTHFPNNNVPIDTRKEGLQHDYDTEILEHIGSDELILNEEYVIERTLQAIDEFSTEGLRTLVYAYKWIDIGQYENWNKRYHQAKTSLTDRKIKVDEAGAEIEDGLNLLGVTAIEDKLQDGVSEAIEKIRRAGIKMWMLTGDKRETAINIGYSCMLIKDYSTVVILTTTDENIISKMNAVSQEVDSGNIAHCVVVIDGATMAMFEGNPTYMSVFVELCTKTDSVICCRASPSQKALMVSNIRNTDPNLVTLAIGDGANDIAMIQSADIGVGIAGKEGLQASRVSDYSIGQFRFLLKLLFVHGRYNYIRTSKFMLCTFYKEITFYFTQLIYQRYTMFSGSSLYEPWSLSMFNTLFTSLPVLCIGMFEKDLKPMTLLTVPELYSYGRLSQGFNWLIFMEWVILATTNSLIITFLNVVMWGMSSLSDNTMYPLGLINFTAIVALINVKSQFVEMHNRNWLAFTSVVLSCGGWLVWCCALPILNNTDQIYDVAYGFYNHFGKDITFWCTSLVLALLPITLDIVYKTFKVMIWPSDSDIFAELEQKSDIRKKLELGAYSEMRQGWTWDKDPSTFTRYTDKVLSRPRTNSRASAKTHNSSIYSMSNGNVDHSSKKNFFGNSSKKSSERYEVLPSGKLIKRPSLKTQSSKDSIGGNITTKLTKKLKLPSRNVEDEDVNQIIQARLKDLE

Variant | effect of a mutation on the interaction
C193A | decreasing interaction strength
C126A | disrupting interaction strength
C82A | disrupting interaction strength
C179A | decreasing interaction strength
